From paper PMC6390181, “Ovalbumin Epitope [sequence] Self-Assembles into a Supramolecular Hydrogel” (Scientific Reports, 2019) come the findings set out here.

The data set deals with the molecule itself. Description: hydrogel formation (visual inspection, rheology); purified peptide dissolved in Millipore water at 0.5% or 1% (w/v); room temperature; gel seen at once (1%) or after overnight incubation (0.5%); rheology after 24 h; the analogue was followed for 72 h.

B1: OVA257-264 octapeptide SIINFEKL (peptide)
peptide: SIINFEKL
notes: ovalbumin (OVA), residues 257-264; Assembles into nanofibrils and a hydrogel; the number of peptides in an assembly is not defined; source: synthetic peptide (Fmoc-SPPS, purified by RP-HPLC)
As to B1, the binding result is listed as “binds”.
